From the DeepSol protein solubility set

assay: soluble on expression in E. coli; label from the status in PepcDB or PDB records

Sequence | soluble on expression in E. coli
MTKEEFIKQKEQRKTFLVIAEEEGDSITPISLYRRMKGKKKFLLESSQLHQDKGRYSYLGCNPYGEVKSVGTEVERTIYGRAEKLQSNVLQVLEEIIAPSQVDSPFPFCGGAVGYIGYDVIRQYENIGADLHDPLNIPEVHLLLYREFIVYDHLRQKLSFVYVCREDDSADYEEVYERLRVYKEEVLQGEEAEVTEIRSTLSFTSSITEREFCVMVETAKEHIGAGDIFQVVLSQRLQSECIGDPFALYRKLRIANPSPYMFYIDFQDYVVLGSSPESLLSVREDKVMTNPIAGTRPRGKTKEEDTEIEKELLENEKERAEHMMLVDLGRNDIGRVSEIGSVTIDKYMKVEKYSHVMHIVSEVYGTLRKQMSGFDALAYCLPAGTVSGAPKIRAMEIINELENEKRNVYAGAVGYVSFSGNLDMALAIRTMVVKDEKAYVQAGAGIVYDSDPVAEYEETLNKARALLEVMK | not soluble
MAHHHHHHMEENNQVEKNKGTNQLCFVKMLVNNLVAGSVIGKNGSIITSIENKTGCSLKLSPTNSYFPNTQERVLVLCGKQEQINNALLIILDKIRQITVQSFQDKQNMNTVPKYTCRIVIPKSAASAIIGKGGQQIKQLQDSTGAKIQISSREDGLNERIISIIGPFESISDTAIKVTNSIQNDPNLKDLLNVIYNKDTNMNGRSSLSQNFVNQVPLNGYVVPQQYGVFQHEQYMDVNMMNSLMRHSRDLFNLPCEISIQIPDEFIGSVIGKNGSRLTNIMNSTGAQIRISRKGELIPGTADRKVRIMGTVAAVHGAHVLLLQRLESVYMQLRTMQVKCDA | soluble
AIELVPEHQTVPVSIGVPATLRCSMKGEAIGNYYINWYRKTQGNTMTFIYREKDIYGPGFKDNFQGDIDIAKNLAVLKILAPSERDEGSYYCACDTLGMGGEYTDKLIFGKGTRVTVEPRSQPHTKPSVFVMKNGTNVACLVKEFYPKDIRINLVSSKKITEFDPAIVISPSGKYNAVKLGKYEDSNSVTCSVQHDNKTVHSTDFEVKTDSTDHVKPKETENTKQPSKS | soluble
MGSDKIHHHHHHMKAVTLRANCDPLFSLFMTSFSEANNIYILNFKKRALQSLLKVKLMYYHESIDSKSKIFPVKIILHDKAVNVPKHWHRSLEISYTYQGSIPDFTIAGKHYSTRPGTILVVNSNEIHSVFFPKTKKRQDSLALSLIFPYPFLMKIVPNYRYRRYEIPDKELLTANNQQNLAELEGILKKFFQFASHQTNSLDEISKTSQILQILYLLTKNFSSIVTTPNDLATTDKPFERLDEIIMFIQEHAKEALTVTKIADHFNLSTSYFSRNFKYYMGNSVIEYLNLVRLHEAYQLLTNTKKSILVISTQVGFPNEKAFTRTFKRIYKVTPTDYRKRLSGKNRTNIL | not soluble
MRKDVKIYLNHILESIELIEEYTKDKTEDDFFTSKFLQDAVIRRIEIIGEAIKNLPMEFREKYNHIPWKEFAEMRDILIRKYFGVDLGLTWEVVKKDIPKLKEEILKIMEELDKNKNNKYNVFAYGELMKKERLLELINRVPKMIEGRVYGYEKFFDETIGYYGARKKEGSYIDGIILLDITDKELGIFDDYEDLDVYYIREKTTAVSEDGRKYDVYIYLRK | soluble
MAHHHHHHMTNKKKMSNSETGGTRCVYVLSDIDGFKYRLVMEGDVRLLTTSKLKRYLQNATGLSAQQQELSFRGRVMQDGECGGDVGLVDGAVLQLRHVKGMRRTNSGDGRRVNRLPSSSMSMGGVAHRGRSSVVDAASCASPTAGLLTPLQGSHPRDGQNGGEAFTSPPPREMNYRSKRMGREAHALEIENARLEERLLEMERRLANASSDWRLQEEIEQLKGIIAQLLREKEAVGRSAEEKWRAKEEELVKELDLMREERRRLHREQTLFEEEQRALVRSLEEQVRSQQQRLLEQGTTITQQTRQRQPAMNVAEKVEKSLKQLSLELNIPQLHLDDNDTCVLPLGDGTNILVTLDTITERLFMYAVIANSLPSNAGKRLELFEMLLEGALLGRDMATGGVGVCLRNELIIMNVCVDIVHADEYALASIARPFMESVQHWSEAVKKMMPEKKN | not soluble
MGSDKIHHHHHHADSDDENSNFSSGITGMNLSAEVLKHQPMVEKYARENGISEYVNVLLAIIQVESGGTAEDVMQSSESLGLPPNSLDTESSIKQGCKYFASLLSSSKNQGIDDLNVAIQSYNYGGGYVGYVAGKGKKHTFNLAESFAREKSGGKKVTYTNPIAVAKNGGWRWNYGNMFYVELVNQYLTVPQVSGELAQKVMNEALKYQGWKYVYGGSNPNTSFDCSGLTQWCYGKAGISLPRTAQAQYDATQHLPLSQAKAGDLVFFHSTYNAGSYVTHVGIYVGNNQMYHAGDPIGYADLSSSYWQQHLIGAGRVKQ | not soluble
MGSDKIHHHHHHMSQSKPLFPLNAWYAVAWDHEVKHALTPRKLCNLDVVLYRTTAGAVVALEDACWHRLVPLSMGKLRGDDVVCGYHGLVYNAQGRCVHMPSQETINPSACVRGFPVAEKHRYVWVWPGDPAQADVALIPDLHWSHDPAWAGDGRTIHAKCDYRLVLDNLMDLTHETFVHGSSIGQDEVAEAPFEVVHGDRTVTVSRWMHNIDPPPFWAGQIARHLNYHGKVDRWQIIHFEAPGTIAIDVGVAITGTGAPQGDRSQGVNGFVLNTITPETDTTCHYFWAFMRNYALHDQSLTTLTREGVTGVFGEDEAVLEAQQRAIEAHPDHAFYNLNVDAGGMWARRVIDRLIAREQRAGDLSLRMVG | not soluble
MAHHHHHHMEPDDGVASWMELREEGNKAFKSEAYANAVKLYSEAIKLNSKEAALFSNRSAAYIKMKEYQKAVLDAEAAIANDKTFVKGYSRLHNALCHLGRFREATQKLKEALVVLEACGASPEDKKQIQELHRTAEEGQRGFEAGQRLLEERNFLAAERELVKAAQLFPDCAIVGIMLGESQASLYPERVIRSLTALSSAHADDTYYLYVRALASYYSGQSGLNNAQSILRHTIELDPDNRKATELLKKIRAVESQKTEGNAAFKEKRFTAAVNCYKAAIEVDPSNIRMTAVLRGNQAAAKMELKEYSSALLDCDFAIKNGAESAKLYARRSRIHEALENYDDALRDIQRAAEMDPSYNGEAQQMKISAKRAKRKDYYKILGLPQGESDDSSIKRAYKKGCLQWHPDKWAHATEEEKAHAEKMFKEVGEAFSILSDPQKKRLYDSGQLDDASSPGGTSDFPARQADIFQMMNMMFQGGCGEGGMPSGFSFTVDPRSRRQKQTFHYR | soluble
YEQKIRLENRSVAGKWALSQKGFDGKKLMRAYDSPEAAAAALKMQKLTEQYRIDSTPTVIVGGKYRVIFNNGFDGGVHTIKELVAKVREERKRQTPAVQK | not soluble
MAGHSHWAQIKHKKAKVDAQRGKLFSKLIREIIVATRLGGPNPEFNPRLRTAIEQAKKANMPWENIERAIKKGAGELEGEQFEEVIYEGYAPGGVAVMVLATTDNRNRTTSEVRHVFTKHGGNLGASGCVSYLFERKGYIEVPAKEVSEEELLEKAIEVGAEDVQPGEEVHIIYTVPEELYEVKENLEKLGVPIEKAQITWKPISTVQINDEETAQKVIKLLNALEELDDVQQVIANFEIPEEILQKVG | soluble
MHHHHHHSSGRENLYFQGMAKERRRAVLELLQRPGNARCADCGAPDPDWASYTLGVFICLSCSGIHRNIPQVSKVKSVRLDAWEEAQVEFMASHGNDAARARFESKVPSFYYRPTPSDCQLLREQWIRAKYERQEFIYPEKQEPYSAGYREGFLWKRGRDNGQFLSRKFVLTEREGALKYFNRNDAKEPKAVMKIEHLNATFQPAKIGHPHGLQVTYLKDNSTRNIFIYHEDGKEIVDWFNALRAARFHYLQVAFPGASDADLVPKLSRNYLKEGYMEKTGPKQTEGFRKRWFTMDDRRLMYFKDPLDAFARGEVFIGSKESGYTVLHGFPPSTQGHHWPHGITIVTPDRKFLFACETESDQREWVAAFQKAVDRPMLPQEYAVEAHFKHKP | soluble
MGSDKIHHHHHHMKTFLVCALEPSANLHLKEVLKAYKKDFGEFELHGIYDESLCKEFDLNSKPLYSSHEFSAMGFIEVLPLIFKAKKAIKELANLSFTQKINGILCIDSPAFNIPFAKALKKAGSKIPRIYYILPQVWAWKKGRIPIIESHFDILASILPFDNQFFNKSTYIGHPLLDEIKEFKNQEDINHTFSKKDDEKTIAFLPGSRRSEIRRLMPIFKELSQKFKGKKILCVPSFNLEKLEVYGDISEFKIESNTPKVLKKADFAFICSGTATLEAALVGTPFVLAYKAKAIDIFIAKLFVKLKHIGLANIFCDFAGKEALNPEFLQDKVNVLNLYEAYNKYDYKAFFAKVDFLKEYLQFGSAKNLAKILNEI | not soluble
MPRALNDRSSALTAQNLIALPERFGCPVWAYDGDIIAERINQLRHFDVIRFAQKACSNIHILRLMREQGVKVDSVSLGEIERALHAGYQPGQEPAEIVFTADLLDQATLLRVTELNIPVNAGSIDMLDQLGQQAPGHPVWLRVNPGFGHGHSQKTNTGGENSKHGIWHEELPRALKKIEHYGLTLVGIHMHIGSGVDYQHLEQVCDAMVQQVITLGHDISAISAGGGLSIPYQFGDDVIDTEHYYGLWNSARERIAAHLGHPVSLEIEPGRFLVAESGVLIAQVRAVKDMGRRHYVLVDAGFNDLMRPAMYGSYHHISLLPADGRDLTSAPLIDTVVAGPLCESGDVFTQQEGGGVETLALPAAVIGDYLVFHDTGAYGASMSSNYNSRPLLPEVLFEKGQPRLIRRRQTIEELIDLERV | not soluble
MGSDKIHHHHHHMDSLVVPGLDTLRRWLDEIGISFFECDSCQALHLPHMQNFDGIFDAKIDLVDNVVLFSALAEVKPSALLALSADLSAINASSLTVKAFIDIQDDNLPKLVVCQSLSIGPGVTMEQFAWFFRQSEEQISMVILEAGANQLLYKGEEEEPAAENVQYHFLH | not soluble
MDAKQRIARRVAQELRDGDIVNLGIGLPTMVANYLPEGIHITLQSENGFLGLGPVTTAHPDLVNAGGQPCGVLPGAAMFDSAMSFALIRGGHIDACVLGGLQVDEEANLANWVVPGKMVPGMGGAMDLVTGSRKVIIAMEHCAKDGSAKILRRCTMPLTAQHAVHMLVTELAVFRFIDGKMWLTEIADGCDLATVRAKTEARFEVAADLNTQRGDL | soluble
MTSFNSFMRPLAAAILSALVTLAPVAPQAQEAVRGAVTNLPIPRFVSMKANEGNVRRGPSLTHRIDWVFKRRDMPLQITAEHGHWRKVQDRDGAGGWVHYALLSGVRTVLVEKDMMPLYARPDPASQVAAHFEMGVVARLGTCTQDWCRISAGGYRGWAPKENLWGVGTDEIRELEHHHHHH | not soluble
KLEGAFAKGTNVLMADGSIECIENIEVGNKVMGKDGRPREVIKLPRGRETMYSVVQKSQHRAHKSDSSREVPELLKFTCNATHELVVRTPRSVRRLSRTIKGVEYFEVITFEMGQKKAPDGRIVELVKEVSKSYPISEGPERANELVESYRKASNKAYFEWTIEARDLSLLGSHVRKATYQTYAPILYENDHFFDYMQKSKFHLTIEGPKVLAYLLGLWIGDGLSDRATFSVDSRDTSLMERVTEYAEKLNLCAEYKDRKEPQVAKTVNLYSKVVRGNGIRNNLNTENPLWDAIVGLGFLKDGVKNIPSFLSTDNIGTRETFLAGLIDSDGYVTDEHGIKATIKTIHTSVRDGLVSLARSLGLVVSVNAEPAKVDMNGTKHKISYAIYMSGGDVLLNVLSKCAGSKKFRPAPAAAFARECRGFYFELQELKEDDYYGITLSDDSDHQFLLANQVVVHACGER | soluble
MGSDKIHHHHHHMWFRSKPGKSRAAAKGRDVQSTPKASTDVVLERVRLPVDLLQPGMKVVKLDRPWTEVPVLFQGFTLQTEAEARVLRQYCAWVVVEDEAERLAPVLDQIPHLKQRTTEPLQETRTLEQELPRAADTWSRTQQFVEKLIRDIEQNNDLELASARPLIRSCVDSVKTNASAMFWMARIKHRDAYTAEHCLRVAILTVAFARFLGLPEDDLEVAGMCGLLHDIGKLRVPDEILNKPGPLSPQEYEVMRKHTTLGHELLKQDPSLDPIISDVTLHHHERIDGRGYPQQLPEWQISRFARLIAIVDAYDAMTSDRCYRDGMSPADAVRILYKNRAQQFDADMVEAFIRMIGIYPPGSLVELNTGEVALVVSTHPGRKLKPKVEILLDNNKHPVTPRVMDLGSQTTTDGPVREIKAPLPDGAFGISLEGRVKQLMAKTIANHS | not soluble
